Reference: patent US20060234285A1 (Human Genome Sciences, published 2006)

What was measured:
Assay in all cases: flow cytometry on transiently transfected cells
[1] = target: T1, TNFR2, on transiently transfected cells (UniProt P20333 23-461, limits assumed)
T1 construct: whole, on cells
T1 sequence (looked up): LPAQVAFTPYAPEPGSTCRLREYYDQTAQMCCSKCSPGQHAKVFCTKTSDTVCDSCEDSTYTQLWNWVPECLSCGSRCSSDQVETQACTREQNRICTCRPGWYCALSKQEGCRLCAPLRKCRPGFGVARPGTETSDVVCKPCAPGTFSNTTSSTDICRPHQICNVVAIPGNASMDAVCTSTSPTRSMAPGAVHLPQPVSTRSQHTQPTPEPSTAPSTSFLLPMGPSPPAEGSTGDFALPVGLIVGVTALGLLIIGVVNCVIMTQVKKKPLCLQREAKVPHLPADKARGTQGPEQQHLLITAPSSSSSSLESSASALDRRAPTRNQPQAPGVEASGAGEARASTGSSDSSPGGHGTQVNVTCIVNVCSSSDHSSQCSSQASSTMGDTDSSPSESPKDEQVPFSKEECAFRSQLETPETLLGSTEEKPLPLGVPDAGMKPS
Procedure: (§1) One million cells, in 0.1 ml of FACS buffer (PBS, 0.1% BSA, 0.1% NaN₃), were incubated with 0.1-1 microgram of protein or antibody at RT for 15 min. The cells were washed with 3 ml of FACS buffer, reacted with biotinylated primary antibody, and stained with PE-conjugated secondary antibody at RT for 15 min. Cells were then washed again, resuspended in 0.5 microgram/ml of propidium iodide, and live cells were gated and analyzed on a FACScan using the CellQuest software (BD Biosciences).

[2] = target: T2, CD27, on transiently transfected cells (UniProt P26842 20-260, limits assumed)
T2 construct: whole, on cells
T2 sequence (looked up): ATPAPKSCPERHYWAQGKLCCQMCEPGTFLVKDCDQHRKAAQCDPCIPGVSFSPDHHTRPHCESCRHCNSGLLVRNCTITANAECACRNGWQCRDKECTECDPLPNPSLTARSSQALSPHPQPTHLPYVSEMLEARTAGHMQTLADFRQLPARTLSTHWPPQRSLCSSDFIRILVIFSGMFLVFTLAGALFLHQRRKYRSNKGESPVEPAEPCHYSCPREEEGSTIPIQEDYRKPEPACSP
Procedure: as §1

[3] = target: T3, CD30, on transiently transfected cells (UniProt P28908 19-595, limits assumed)
T3 construct: whole, on cells
T3 sequence (looked up): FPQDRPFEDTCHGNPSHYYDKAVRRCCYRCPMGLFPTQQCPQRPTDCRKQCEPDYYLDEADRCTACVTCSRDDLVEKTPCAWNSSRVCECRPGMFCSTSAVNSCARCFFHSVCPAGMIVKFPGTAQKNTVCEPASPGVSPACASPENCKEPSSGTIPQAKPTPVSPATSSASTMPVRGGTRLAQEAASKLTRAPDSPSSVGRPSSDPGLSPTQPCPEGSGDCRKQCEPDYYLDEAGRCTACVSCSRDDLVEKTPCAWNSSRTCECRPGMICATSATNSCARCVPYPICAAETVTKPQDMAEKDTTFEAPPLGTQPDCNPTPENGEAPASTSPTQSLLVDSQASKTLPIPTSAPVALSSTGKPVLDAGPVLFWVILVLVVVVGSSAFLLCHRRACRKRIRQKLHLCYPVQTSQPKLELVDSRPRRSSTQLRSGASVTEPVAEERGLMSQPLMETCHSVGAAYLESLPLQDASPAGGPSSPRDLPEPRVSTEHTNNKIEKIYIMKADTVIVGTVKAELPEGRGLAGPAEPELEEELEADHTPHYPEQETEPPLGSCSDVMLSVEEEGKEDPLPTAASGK
Procedure: as §1

[4] = target: T4, DR6, on transiently transfected cells (UniProt O75509 42-655, limits assumed)
T4 construct: whole, on cells
T4 sequence (looked up): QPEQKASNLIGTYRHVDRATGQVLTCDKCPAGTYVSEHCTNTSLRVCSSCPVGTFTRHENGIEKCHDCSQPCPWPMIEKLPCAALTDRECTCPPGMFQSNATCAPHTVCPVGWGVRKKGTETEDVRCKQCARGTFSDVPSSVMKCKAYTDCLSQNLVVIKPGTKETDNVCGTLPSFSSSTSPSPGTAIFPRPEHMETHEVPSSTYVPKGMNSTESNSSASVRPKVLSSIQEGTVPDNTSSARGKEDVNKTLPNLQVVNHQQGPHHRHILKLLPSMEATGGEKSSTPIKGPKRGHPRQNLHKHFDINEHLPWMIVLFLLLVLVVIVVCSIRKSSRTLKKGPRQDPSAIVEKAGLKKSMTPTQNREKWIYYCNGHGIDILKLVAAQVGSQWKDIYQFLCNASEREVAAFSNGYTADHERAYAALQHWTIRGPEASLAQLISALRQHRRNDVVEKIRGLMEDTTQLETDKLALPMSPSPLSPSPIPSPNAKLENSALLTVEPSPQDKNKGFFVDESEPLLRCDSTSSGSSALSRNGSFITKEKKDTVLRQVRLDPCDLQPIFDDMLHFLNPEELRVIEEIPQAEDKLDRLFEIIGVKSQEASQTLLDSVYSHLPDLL
Procedure: as §1

[5] = target: T5, DcR2, on transiently transfected cells (UniProt Q9UBN6 56-386, limits assumed)
T5 construct: whole, on cells
T5 sequence (looked up): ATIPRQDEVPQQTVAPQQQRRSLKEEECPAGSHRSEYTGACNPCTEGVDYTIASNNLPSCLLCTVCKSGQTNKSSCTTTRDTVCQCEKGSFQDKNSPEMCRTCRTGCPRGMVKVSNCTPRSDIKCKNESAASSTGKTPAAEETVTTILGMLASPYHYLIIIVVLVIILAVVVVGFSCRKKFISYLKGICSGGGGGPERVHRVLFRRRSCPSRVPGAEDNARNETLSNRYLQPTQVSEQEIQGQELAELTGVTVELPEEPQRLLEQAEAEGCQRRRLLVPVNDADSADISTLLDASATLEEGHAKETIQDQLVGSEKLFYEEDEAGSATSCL
Procedure: as §1

[6] = target: T6, AITR, on transiently transfected cells (UniProt Q9Y5U5 26-241, limits assumed)
T6 construct: whole, on cells
T6 sequence (looked up): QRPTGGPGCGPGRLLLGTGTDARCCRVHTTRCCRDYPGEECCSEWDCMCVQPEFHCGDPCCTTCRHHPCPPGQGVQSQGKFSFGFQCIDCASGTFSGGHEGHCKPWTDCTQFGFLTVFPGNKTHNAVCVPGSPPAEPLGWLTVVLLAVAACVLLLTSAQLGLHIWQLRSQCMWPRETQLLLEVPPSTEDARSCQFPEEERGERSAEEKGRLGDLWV
Procedure: as §1

Measured: binding result

B1: FLAG-tagged soluble form of TNF-gamma-beta (aa 72-251) (ligand, human, UniProt O95150 72-251, looked up, not shown: small tags and cut ends)
chain: LKGQEFAPSHQQVYAPLRADGDKPRAHLTVVRQTPTQHFKNQFPALHWEHELGLAFTKNRMNYTNKFLLIPESGDYFIYSQVTFRGMTSECSEIRQAGRPNKPDSITVVITKVTDSYPEPTQLLMGTKSVCEVGSNWFQPIYLGAMFSLQEGDKLMVNVSDISLVDYTKEDKTFFGAFLL
notes: also called FLAG-TL1β; FLAG-TNF-gamma-beta
no binding: all assays above
